{"source": "paper PMC10620216", "biological_target": "anti-StrepTagII pentameric IgM with J-chain", "assay": "mass photometry; Refeyn OneMP, in PBS, measurement concentrations typically around 5–20 nM, recorded for 120 s; oligomeric state of the antibody in solution", "data": [{"binder": "anti-StrepTagII pentameric IgM with J-chain (antibody, V domains shown) VH: EVQLEQSGPELVKPGASVKMSCKASGYTFTNYYMKWVKQSHGKSLEWIGDLNPNNGDTFYNQKFKGKATLTVDKSSNTAYMQLNSLTSEDSAVYYCARTGRYEENAMDYWGQGTSVTVSS VL: ELVMTQSPASLAVSLGQRATISCRASESVDSYGKSFMHWYQLKPGQPPKLLIYRASNLESGVPARFSGSGSRTDFTLTIDPVEADDAATYYCQQNNEDPWTFGGGTKLEIK", "values": [{"measurement": "percent (m/m) of IgM in pentameric configuration", "result": "85 % (m/m)"}, {"measurement": "stoichiometry N", "result": 5}]}]}
